# Results taken from publication PMC5103362 (Autophagy, 2016).
# T1: Vps15 (subunit of the purified yeast complex I) (S. cerevisiae, UniProt P22219 1-1454)
# T1 construct: Vps15, S. cerevisiae
# T1 sequence (looked up): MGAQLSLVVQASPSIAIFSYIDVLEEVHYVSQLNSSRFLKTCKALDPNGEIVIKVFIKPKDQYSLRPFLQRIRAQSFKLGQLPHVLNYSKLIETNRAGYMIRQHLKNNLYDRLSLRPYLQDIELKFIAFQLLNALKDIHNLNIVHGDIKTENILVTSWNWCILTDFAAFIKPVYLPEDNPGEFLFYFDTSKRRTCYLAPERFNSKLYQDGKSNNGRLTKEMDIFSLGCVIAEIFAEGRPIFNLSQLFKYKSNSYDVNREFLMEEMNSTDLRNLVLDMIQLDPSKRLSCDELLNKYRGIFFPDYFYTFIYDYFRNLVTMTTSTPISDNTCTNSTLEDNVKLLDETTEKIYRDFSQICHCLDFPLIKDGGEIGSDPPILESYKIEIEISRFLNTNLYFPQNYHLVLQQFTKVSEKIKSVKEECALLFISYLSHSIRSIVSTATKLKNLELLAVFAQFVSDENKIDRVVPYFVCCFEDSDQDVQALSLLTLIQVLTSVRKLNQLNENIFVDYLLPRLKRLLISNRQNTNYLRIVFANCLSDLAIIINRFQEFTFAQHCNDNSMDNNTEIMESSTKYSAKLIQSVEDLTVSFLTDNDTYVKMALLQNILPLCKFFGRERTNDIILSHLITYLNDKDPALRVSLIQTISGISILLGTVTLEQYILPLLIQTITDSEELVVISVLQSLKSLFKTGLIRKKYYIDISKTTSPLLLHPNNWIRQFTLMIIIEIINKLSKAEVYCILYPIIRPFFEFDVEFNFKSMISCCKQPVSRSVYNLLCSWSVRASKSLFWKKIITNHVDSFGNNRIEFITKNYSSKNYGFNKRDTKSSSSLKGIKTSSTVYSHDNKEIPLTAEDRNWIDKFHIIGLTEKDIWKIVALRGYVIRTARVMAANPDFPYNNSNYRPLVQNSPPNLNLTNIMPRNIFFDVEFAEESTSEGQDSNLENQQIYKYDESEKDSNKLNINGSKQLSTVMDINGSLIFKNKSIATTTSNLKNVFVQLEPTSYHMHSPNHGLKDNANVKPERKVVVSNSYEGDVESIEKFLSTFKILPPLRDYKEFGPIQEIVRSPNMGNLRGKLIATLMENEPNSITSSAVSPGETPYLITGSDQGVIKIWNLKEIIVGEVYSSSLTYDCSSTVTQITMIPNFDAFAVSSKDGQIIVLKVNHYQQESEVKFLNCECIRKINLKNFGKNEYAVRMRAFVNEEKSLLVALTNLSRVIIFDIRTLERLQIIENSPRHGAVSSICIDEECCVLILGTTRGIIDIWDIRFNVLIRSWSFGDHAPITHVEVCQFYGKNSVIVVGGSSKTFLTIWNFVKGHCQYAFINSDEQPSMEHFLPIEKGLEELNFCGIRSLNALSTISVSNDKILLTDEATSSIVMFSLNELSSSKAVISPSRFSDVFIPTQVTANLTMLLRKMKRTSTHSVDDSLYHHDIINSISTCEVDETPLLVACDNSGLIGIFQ
# Assays:
# [1] = target: T1, Vps15 (subunit of the purified yeast …); test: SEC-MALS; purified yeast complex I (co-expressed, co-purified) and gel-filtration purified complex I + Atg38 on S200 10/30; 20 mM Tris pH 8.8, 150 mM NaCl, 1 mM TCEP; details: both partners purified
# [2] = target: the molecule itself; test: SEC-MALS; Atg38 full-length, MIT domain and deletion variants alone on S75 10/30; 20 mM Tris pH 7.9, 300 mM NaCl, 1 mM TCEP
# [3] = target: T2, yeast complex I (Vps15-Vps34-Vps30-Atg14 heterotetramer) (S. cerevisiae, UniProt P22219 1-1454; P22543 1-875; Q02948 1-557; P38270 1-344); test: pull-down; GST affinity isolation: GST fusions of Atg38 on glutathione Sepharose, purified yeast complex I at 1.78 µM with 10-fold excess of GST fusion; 50 mM Tris pH 8.8, 150 mM NaCl, 1 mM TCEP, on ice 90 min; stained gel; details: both partners purified
# T2 construct: Vps15, S. cerevisiae, subunit of complex I; Vps34, S. cerevisiae, subunit of complex I; Vps30/Atg6, S. cerevisiae, subunit of complex I; Atg14, S. cerevisiae, subunit of complex I; expected mass 379 kDa; also called CI; heterotetrameric S. cerevisiae complex I; copies: 1 + 1 + 1 + 1
# [4] = target: the molecule itself; test: crystal structure; full-length Atg38 after limited proteolysis with subtilisin; 2.2 Å, MAD with selenomethionine protein
Binder,stoichiometry N [1],stoichiometry N [2],also measured
"Vps30/Atg6 (subunit of the purified yeast complex I) (natural protein, S. cerevisiae, UniProt Q02948 1-557, looked up, Vps30/Atg6, S. cerevisiae) MKCQTCHLPLQLDPSLEGLSLTQRNLLLSNNSIITATNENVISNKGIEAADNCGPQIPKERLRRLGEIQNIKDLNLKDDKLITDSFVFLNHDDDDNANITSNSREDQRYGNANGNDNKKANSDTSDGTSTFRDHDEEEQEATDEDENQQIQLNSKTLSTQVNAMTNVFNILSSQTNIDFPICQDCCNILINRLKSEYDDAIKERDTYAQFLSKLESQNKEISESNKEKQYSHNLSEKENLKKEEERLLDQLLRLEMTDDDLDGELVRLQEKKVQLENEKLQKLSDQNLMDLNNIQFNKNLQSLKLQYELSLNQLDKLRKINIFNATFKISHSGPFATINGLRLGSIPESVVPWKEINAALGQLILLLATINKNLKINLVDYELQPMGSFSKIKKRMVNSVEYNNSTTNAPGDWLILPVYYDENFNLGRIFRKETKFDKSLETTLEIISEITRQLSTIASSYSSQTLTTSQDESSMNNANDVENSTSILELPYIMNKDKINGLSVKLHGSSPNLEWTTAMKFLLTNVKWLLAFSSNLLSKSITLSPTVNYNDKTISGN",1,,
"Atg38 tailΔ (210 to 226 deleted), recombinant (domain or fragment, S. cerevisiae, UniProt Q05789 1-209, looked up, Atg38, S. cerevisiae; GST fusions were eluted with glutathione or cut with TEV as needed; likely cut for SEC-MALS; source: E. coli, purified (Glutathione Sepharose, S75)) MSTLAEVYTIIEDAEQECRKGDFTNAKAKYQEAIEVLGPQNENLSQNKLSSDVTQAIDLLKQDITAKIQELELLIEKQSSEENNIGMVNNNMLIGSVILNNKSPINGISNARNWDNPAYQDTLSPINDPLLMSILNRLQFNLNNDIQLKTEGGKNSKNSEMKINLRLEQFKKELVLYEQKKFKEYGMKIDEITKENKKLANEIGRLRER",,2,
"Atg38 capΔ (123 to 181 deleted), recombinant (natural protein, S. cerevisiae, UniProt Q05789 1-226, looked up, GST fusions were eluted with glutathione or cut with TEV as needed; likely cut for SEC-MALS; source: E. coli, purified (Glutathione Sepharose, S75)) MSTLAEVYTIIEDAEQECRKGDFTNAKAKYQEAIEVLGPQNENLSQNKLSSDVTQAIDLLKQDITAKIQELELLIEKQSSEENNIGMVNNNMLIGSVILNNKSPINGISNARNWDNPAYQDTFKEYGMKIDEITKENKKLANEIGRLRERWDSLVESAKQRRDKQKN",,2,
"GST-Atg38 (1 to 78) (domain or fragment, S. cerevisiae, UniProt Q05789 1-78, looked up, Atg38, S. cerevisiae, MIT domain, residues 1 to 78; also called MIT domain alone; source: E. coli, purified (Glutathione Sepharose, eluted with glutathione); not shown: GST, N-terminal, kept) MSTLAEVYTIIEDAEQECRKGDFTNAKAKYQEAIEVLGPQNENLSQNKLSSDVTQAIDLLKQDITAKIQELELLIEKQ",,,binding result [3]: binds
"Atg14 (subunit of the purified yeast complex I) (natural protein, S. cerevisiae, UniProt P38270 1-344, looked up, Atg14, S. cerevisiae) MHCPICHHRAHVVYCAHCINTSPSLLLKLKLDLILLKDENKELNGKVEQILNEAMNYDQLDIKRMEKKKDPLMNSLMKLDVLRMKKNNNLIRHRIEQLNERIYSKRNHISELKVEIDNYKCYKVGTGTDKLREQVEISDAKNKLAQVSKICESARDYKLNLLNNWFVIQKLQDNFQIPFAIAFQPLISLKNFRILPLAITNDSINIMWKYISFFSDILMIKLPYTNKICEQPMFEFSDSIQTVVQRLIKLIINILQICRHLKLVPSTPMDIPWLLDQYDVDGLFYNMVKRNKMKCRSVSLYWTFGMLYSMVLDNMNNPQRGHPARRTAPPPTVTGPHDRWYVVG",1,,
"Atg38 C-terminal homodimerization domain (crystallized region, residues 119 to 211) (domain or fragment, S. cerevisiae, UniProt Q05789 119-211, looked up, Atg38, S. cerevisiae, crystallized region, residues 119 to 211; Limits are those seen in the crystal; the proteolysed protein was not purified further; A selenomethionine derivative was used for phasing; also called Atg38 C-terminal domain; C-terminal region of Atg38; source: E. coli, purified full-length Atg38 subjected to limited proteolysis with subtilisin) YQDTLSPINDPLLMSILNRLQFNLNNDIQLKTEGGKNSKNSEMKINLRLEQFKKELVLYEQKKFKEYGMKIDEITKENKKLANEIGRLRERWD",,,binding result [4]: binds
"Atg38 stalkΔ (182 to 209 deleted), recombinant (natural protein, S. cerevisiae, UniProt Q05789 1-226, looked up, GST fusions were eluted with glutathione or cut with TEV as needed; likely cut for SEC-MALS; source: E. coli, purified (Glutathione Sepharose, S75)) MSTLAEVYTIIEDAEQECRKGDFTNAKAKYQEAIEVLGPQNENLSQNKLSSDVTQAIDLLKQDITAKIQELELLIEKQSSEENNIGMVNNNMLIGSVILNNKSPINGISNARNWDNPAYQDTLSPINDPLLMSILNRLQFNLNNDIQLKTEGGKNSKNSEMKINLRLEQFKKELVLYEQKKWDSLVESAKQRRDKQKN",,2,
"Vps34 (subunit of the purified yeast complex I) (enzyme, S. cerevisiae, UniProt P22543 1-875, looked up, Vps34, S. cerevisiae) MSLNNITFCVSQDLDVPLKVKIKSLEGHKPLLKPSQKILNPELMLIGSNVFPSSDLIVSLQVFDKERNRNLTLPIYTPYIPFRNSRTWDYWLTLPIRIKQLTFSSHLRIILWEYNGSKQIPFFNLETSIFNLKDCTLKRGFESLKFRYDVIDHCEVVTDNKDQENLNKYFQGEFTRLPWLDEITISKLRKQRENRTWPQGTFVLNLEFPMLELPVVFIEREIMNTQMNIPTLKNNPGLSTDLREPNRNDPQIKISLGDKYHSTLKFYDPDQPNNDPIEEKYRRLERASKNANLDKQVKPDIKKRDYLNKIINYPPGTKLTAHEKGSIWKYRYYLMNNKKALTKLLQSTNLREESERVEVLELMDSWAEIDIDDALELLGSTFKNLSVRSYAVNRLKKASDKELELYLLQLVEAVCFENLSTFSDKSNSEFTIVDAVSSQKLSGDSMLLSTSHANQKLLKSISSESETSGTESLPIVISPLAEFLIRRALVNPRLGSFFYWYLKSESEDKPYLDQILSSFWSRLDKKSRNILNDQVRLINVLRECCETIKRLKDTTAKKMELLVHLLETKVRPLVKVRPIALPLDPDVLICDVCPETSKVFKSSLSPLKITFKTTLNQPYHLMFKVGDDLRQDQLVVQIISLMNELLKNENVDLKLTPYKILATGPQEGAIEFIPNDTLASILSKYHGILGYLKLHYPDENATLGVQGWVLDNFVKSCAGYCVITYILGVGDRHLDNLLVTPDGHFFHADFGYILGQDPKPFPPLMKLPPQIIEAFGGAESSNYDKFRSYCFVAYSILRRNAGLILNLFELMKTSNIPDIRIDPNGAILRVRERFNLNMSEEDATVHFQNLINDSVNALLPIVIDHLHNLAQYWRT",1,,
